Assays:
Format in all cases: biochemical, Saccharomyces cerevisiae
[1] = substrate: N[C@@H](CS)C(=O)O; assay: CBL-LDH coupled-coupled CBS assay, tScCBS; details: other: tScCBS, substrate varied with 2 mM Hcy, pH 8.9
Procedure: (§1) CBS coupled-coupled assay. CBS canonical activity utilizing Ser and Hcy was determined using cystathionine beta-lyase (CBL) and lactate-dehydrogenase (LDH) coupled-coupled assay as described previously with a few modifications. Native L-LDH from rabbit muscle was purchased from Sigma (catalog no. L2500) and recombinant CBL was purchased from Creative Enzymes (catalog no. NATE-1146). In a final volume of 150 µL, the reaction mixture contained 50 mM Tris–HCl pH 8.9, 20 µM PLP, 500 µM NADH, 1.3 µM LDH, 0.1 µM CBL, 0–20 mM Ser (or 0–50 mM Cys) and 500 ng of tScCBS or HsCBS. Assays with HsCBS were carried out in the absence or presence of 500 µM CBS allosteric activator S-adenosylmethionine (SAM). The reaction was triggered by the addition of 2 mM Hcy and the oxidation of NADH to NAD^+ was followed by monitoring the decrease in absorbance at 340 nm over time (ε340 = 6220 M^−1.cm^−1). […] All measurements were performed in triplicates using Tecan Infinite 200 PRO microplate reader. Kinetic data were analyzed using GraphPad Prism software.

[2] = substrate: N[C@@H](CO)C(=O)O; assay: CBL-LDH coupled-coupled CBS assay, tScCBS; details: other: tScCBS, substrate varied with 2 mM Hcy, pH 8.9
Procedure: as §1

[3] = substrate: N[C@@H](CS)C(=O)O; assay: CBS H2S production assay (AzMC fluorometric), tScCBS; details: other: tScCBS, Cys + Hcy, pH 8.6, 37.0 °C
Procedure: CBS H2S production assay. H2S-producing activity of CBS, utilizing Cys and Hcy, was determined using a fluorometric assay employing the H2S-selective fluorescent probe 7-azido-4-methylcoumarin (AzMC) as described previously. The reaction mixture in a total volume of 200 µL contained 50 mM Tris–HCl pH 8.6, 5 μM PLP, 2 mM Hcy, 10 μM AzMC and 500 ng tScCBS or HsCBS. The plate was incubated for 10 min at 37°C and the enzymatic activity was triggered by adding 0–50 mM Cys. The fluorescence of the mixtures at 450 nm (excited at 365 nm) was followed for 2 h at 37°C. All measurements were performed in triplicates using Tecan Infinite 200 PRO microplate reader. Kinetic data were analyzed using GraphPad Prism software.

B1: tScCBS (Saccharomyces cerevisiae S288C) (protein)
chain: MTKSEQQADSRHNVIDLVGNTPLIALKKLPKALGIKPQIYAKLELYNPGGSIKDRIAKSMVEEAEASGRIHPSRSTLIEPTSGNTGIGLALIGAIKGYRTIITLPEKMSNEKVSVLKALGAEIIRTPTAAAWDSPESHIGVAKKLEKEIPGAVILDQYNNMMNPEAHYFGTGREIQRQLEDLNLFDNLRAVVAGAGTGGTISGISKYLKEQNDKIQIVGADPFGSILAQPENLNKTDITDYKVEGIGYDFVPQVLDRKLIDVWYKTDDKPSFKYARQLISNEGVLVGGSSGSAFTAVVKYCEDHPELTEDDVIVAIFPDSIRSYLTKFVDDEWLKKNNLWDDDVL
notes: 6xHis (C); made in house
Km [1]: 2500 ± 200 µM
kcat [1]: 1.7 ± 0.1 s⁻¹
kcat/Km [1]: 690 M⁻¹ s⁻¹
Km [2]: 2000 ± 400 µM
Vmax [2]: 4.18 µmol/min/mg
kcat [2]: 2.7 ± 0.1 s⁻¹
kcat/Km [2]: 1340 M⁻¹ s⁻¹
Km [3]: 6700 ± 1500 µM
kcat [3]: 3.4 ± 0.3 s⁻¹
kcat/Km [3]: 510 M⁻¹ s⁻¹
